The target of data set [1] is mouse GIPC1 GH1-PDZ-GH2 (version not told; pull-down and gel filtration) (mouse) (UniProt Q9Z0G0). As to the kind of experiment: SEC; gel filtration chromatography of the GH1-PDZ-GH2 proteins during purification. On the technique in general: Size exclusion chromatography separates by hydrodynamic size, large species first.
Data set [2] addresses mouse GIPC3 GH1-PDZ-GH2 (residues 20-307) (mouse). The description is as above.
Data set [3] concerns the molecule itself. The data set can be described thus: crystal structure; apo-GIPC1 (residues 52-327), 5 mg/ml; 0.2 M Li2SO4, 0.1 M HEPES pH 7.5, 25% (w/v) PEG3350; 20°C.
Data set [4] deals with the molecule itself. The data set can be described thus: crystal structure; PlexinD1cyto and GIPC1 (residues 52-333) mixed equimolar, 5 mg/ml; 0.1 M Bis-Tris pH 5.5, 2 M (NH4)2SO4; 20°C.
The target in data set [5] is T1, helical cargo-binding domain (HCBD) of mouse myosin VI (residues 1052-1096), GST removed.
T1 chain: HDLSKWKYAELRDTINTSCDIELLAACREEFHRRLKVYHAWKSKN
The data set can be described thus: sedimentation velocity analytical ultracentrifugation (AUC). Conditions: chain shown with the change, 150 μM, read off a plot.

Data set [6] concerns the target helical cargo-binding domain (HCBD) of mouse myosin VI (residues 1052-1096), GST removed (mouse). The data set can be described thus: AUC; sedimentation velocity of GH2 and HCBD mixed 1:1 at various concentrations (mutants at 150 μM); multi-signal analysis; 10 mM Tris pH 8.0, 150 mM NaCl, 1 mM TCEP; 4°C, 50,000 rpm.
Data set [7] deals with the molecule itself. As to the kind of experiment: SEC; gel filtration chromatography of the GH1-PDZ-GH2 proteins during purification.
The target in data set [8] is T2, mouse PlexinD1 cytoplasmic region with the JM-segment (residues 1297-1925) (mouse, UniProt Q3UH93 1297-1925).
T2 construct: mouse PlexinD1, cytoplasmic region with the juxtamembrane segment, residues 1297-1925; also called PlexinD1_(cyto)(with JM); PlxD1; not shown: His6, N-terminal, cleaved
T2 sequence (looked up): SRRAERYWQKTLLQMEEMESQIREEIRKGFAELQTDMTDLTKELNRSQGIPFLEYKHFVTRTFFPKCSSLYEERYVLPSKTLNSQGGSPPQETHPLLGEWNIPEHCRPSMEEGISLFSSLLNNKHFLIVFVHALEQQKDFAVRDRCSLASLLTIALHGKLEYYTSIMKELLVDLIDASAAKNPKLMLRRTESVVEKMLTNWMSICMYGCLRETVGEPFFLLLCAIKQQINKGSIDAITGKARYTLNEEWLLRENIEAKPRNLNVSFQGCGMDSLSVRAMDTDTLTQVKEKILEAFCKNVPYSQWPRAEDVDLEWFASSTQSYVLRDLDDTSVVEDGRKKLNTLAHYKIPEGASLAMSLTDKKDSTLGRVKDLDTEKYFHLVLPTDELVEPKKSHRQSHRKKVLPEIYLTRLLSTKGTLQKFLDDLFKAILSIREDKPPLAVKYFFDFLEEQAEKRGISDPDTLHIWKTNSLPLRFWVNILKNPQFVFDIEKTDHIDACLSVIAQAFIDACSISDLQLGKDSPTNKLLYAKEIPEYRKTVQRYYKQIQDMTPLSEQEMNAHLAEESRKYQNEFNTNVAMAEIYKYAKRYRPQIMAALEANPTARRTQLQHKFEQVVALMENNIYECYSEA
The data set can be described thus: pull-down; three proteins mixed: GST-HCBD, a GIPC and PlexinD1cyto (with JM), each 1 μM; glutathione beads; 10 mM Tris pH 8.0, 150 mM NaCl, 1 mM DTT; room temperature; Coomassie-stained SDS-PAGE. Conditions: both partners purified.

Where [9] appears, read: 500 mM salt in the buffer, parent: est. 4.3.

The results in this text go back to paper PMC5461112, “Structure analyses reveal a regulated oligomerization mechanism of the PlexinD1/GIPC/myosin VI complex” (eLife, 2017).

As usually defined, the stoichiometry N is the number of molecules, sites or subunits per partner or assembly.

Positions count from the first letter of the chain named. Numbers in names are those of the source. Where “and” joins values, the source holds several entries; their conditions need not be identical. Equal entries are not always repeated.

The molecule “mouse GIPC1 GH1-PDZ-GH2 (version not told; pull-down and gel filtration) (from UniProt Q9Z0G0 52-333) (domain or fragment)” registered a stoichiometry N in data set [1] of 2.
As for “mouse GIPC3 GH1-PDZ-GH2 (residues 20-307) (domain or fragment)”, in data set [2], the stoichiometry N stood at 2.

B1: mouse GIPC1 GH1-PDZ-GH2 version 2 (residues 52-327) (domain or fragment, UniProt Q9Z0G0 52-327, looked up)
chain: AALRPRLVFHTQLAHGSPTGRIEGFTNVKELYGKIAEAFRLPAAEVMFCTLNTHKVDMDKLLGGQIGLEDFIFAHVKGQRKEVEVFKSEEALGLTITDNGAGYAFIKRIKEGSVIDHIQLISVGDMIEAINGQSLLGCRHYEVARLLKELPRGRTFTLKLTEPRKAFDMISQRSAGGHPGSGPQLGTGRGTLRLRSRGPATVEDLPSAFEEKAIEKVDDLLESYMGIRDTELAATMVELGKDKRNPDELAEALDERLGDFAFPDEFVFDVWGAIGD
notes: mouse GIPC1, GH1-PDZ-GH2 domains, version 2, residues 52-327; the dimer peak of gel filtration was collected; also called apo-GIPC1; not shown: His6, N-terminal, cleaved
As to B1, in data set [3], the binding result was “binds”.

B2: mouse GIPC1 GH1-PDZ-GH2 version 1 (residues 52-333) (domain or fragment, UniProt Q9Z0G0 52-333, looked up)
chain: AALRPRLVFHTQLAHGSPTGRIEGFTNVKELYGKIAEAFRLPAAEVMFCTLNTHKVDMDKLLGGQIGLEDFIFAHVKGQRKEVEVFKSEEALGLTITDNGAGYAFIKRIKEGSVIDHIQLISVGDMIEAINGQSLLGCRHYEVARLLKELPRGRTFTLKLTEPRKAFDMISQRSAGGHPGSGPQLGTGRGTLRLRSRGPATVEDLPSAFEEKAIEKVDDLLESYMGIRDTELAATMVELGKDKRNPDELAEALDERLGDFAFPDEFVFDVWGAIGDAKVGRY
notes: mouse GIPC1, GH1-PDZ-GH2 domains, version 1, residues 52-333; the PDZ-GH2 linker and GH2 domain are invisible in the map; not shown: His6, N-terminal, cleaved
As to B2, the binding result in data set [4] is “binds”.

B3: mouse GIPC1 linker-GH2 (residues 217-333), Q9Z0G0 Y275A; M276E; I278Q; G323Q (protein)
chain: AFDMISQRSAGGHPGSGPQLGTGRGTLRLRSRGPATVEDLPSAFEEKAIEKVDDLLESAEGQRDTELAATMVELGKDKRNPDELAEALDERLGDFAFPDEFVFDVWQAIGDAKVGRY
As for B3, the other: s20,ww-value of the complex in data set [5] (setting [9]) was 1.4 S.

B4: mouse GIPC1 linker-GH2 (residues 217-333), Q9Z0G0 Y275A; M276E (protein)
chain: B3 chain with Q62I, Q107G
As for B4, the other: s20,ww-value of the complex in data set [5] (setting [9]) stood at 1.4 S.

B5: mouse GIPC1 linker-GH2 (residues 217-333), Q9Z0G0 Y275A; M276E; G323Q (protein)
chain: B3 chain with Q62I
B5: the other: s20,ww-value of the complex in data set [5] (setting [9]) stood at 1.4 S.

B6: mouse GIPC1 linker-GH2 (residues 217-333), Q9Z0G0 Y275A; M276E; I278Q (protein)
chain: B3 chain with Q107G
As to B6, the other: s20,ww-value of the complex in data set [5] (setting [9]) came out at 1.4 S.

B7: mouse GIPC1 GH2 domain (residues 258-333), Q9Z0G0 M276E (protein)
chain: SAFEEKAIEKVDDLLESYEGIRDTELAATMVELGKDKRNPDELAEALDERLGDFAFPDEFVFDVWGAIGDAKVGRY
With B7, the other: s20,ww-value of the complex in data set [5] (parent: est. 3.8) was determined as 3.3 S.

B8: mouse GIPC1 GH2 domain (residues 258-333), Q9Z0G0 I278Q; G323Q (protein)
chain: B7 chain with E19M, I21Q, G66Q
As for B8, in data set [5] (parent: est. 3.8), the other: s20,ww-value of the complex was found to be 1.8 S.

B9: mouse GIPC1 GH2 domain (residues 258-333), Q9Z0G0 M276E; F319S (protein)
chain: B7 chain with F62S
B9: the other: s20,ww-value of the complex in data set [5] (parent: est. 3.8) amounted to 1.6 S.

B10: mouse GIPC1 GH2 domain (residues 258-333), Q9Z0G0 Y275A; M276E; I278Q; G323Q (protein)
chain: B7 chain with Y18A, I21Q, G66Q
For B10, the other: s20,ww-value of the complex in data set [5] (parent: est. 3.8) was 1.3 S.

B11: mouse GIPC1 GH2 domain (residues 258-333), Q9Z0G0 Y275A (protein)
chain: B7 chain with Y18A, E19M
Turning to B11, the other: s20,ww-value of the complex in data set [5] (parent: est. 3.8) is 3 S.

B12: mouse GIPC1 GH2 domain (residues 258-333), Q9Z0G0 F319S (protein)
chain: B7 chain with E19M, F62S
B12: the other: s20,ww-value of the complex in data set [5] (parent: est. 3.8) was found to be 2.4 S.

B13: mouse GIPC1 GH2 domain (residues 258-333), Q9Z0G0 Y275A; M276E; I278Q (protein)
chain: B7 chain with Y18A, I21Q
For the molecule B13, the other: s20,ww-value of the complex in data set [5] (parent: est. 3.8) was 1.3 S.

B14: mouse GIPC1 GH2 domain (residues 258-333), Q9Z0G0 Y275A; M276E (protein)
chain: B7 chain with Y18A
As to B14, the other: s20,ww-value of the complex in data set [5] (parent: est. 3.8) came out at 1.3 S.

B15: mouse GIPC1 GH2 domain (residues 258-333), Q9Z0G0 Y275A; G323Q (protein)
chain: B7 chain with Y18A, E19M, G66Q
On to B15, for which the other: s20,ww-value of the complex in data set [5] (parent: est. 3.8) came out at 1.6 S.

B16: mouse GIPC1 GH2 domain (residues 258-333) (domain or fragment)
chain: B7 chain with E19M
Consider B16, for which the stoichiometry N in data set [6] is 1 and 1.1.

B17: mouse GIPC1 GH2 domain (residues 258-333), Q9Z0G0 M276E; G323Q (protein)
chain: B7 chain with G66Q
Take B17: the other: s20,ww-value of the complex in data set [5] (parent: est. 3.8) was 1.5 S.

B18: mouse GIPC1 GH2 domain (residues 258-333), Q9Z0G0 G323Q (protein)
chain: B7 chain with E19M, G66Q
As to B18, in data set [5] (parent: est. 3.8), the other: s20,ww-value of the complex was found to be 1.8 S.

B19: mouse GIPC1 GH2 domain (residues 258-333), Q9Z0G0 Y275A; M276E; G323Q (protein)
chain: B7 chain with Y18A, G66Q
On to B19, for which the other: s20,ww-value of the complex in data set [5] (parent: est. 3.8) came out at 1.3 S.

B20: mouse GIPC1 GH2 domain (residues 258-333), Q9Z0G0 I278Q (protein)
chain: B7 chain with E19M, I21Q
For B20, the other: s20,ww-value of the complex in data set [5] (parent: est. 3.8) was 2.1 S.

B21: mouse GIPC2 GH1-PDZ-GH2 (residues 40-314) (domain or fragment, UniProt Q9Z2H7 40-314, looked up)
chain: RKLVFHAQLAHGSATGRVEDFSSISELYAKIAGVFEIAPSEILFCTLNTPKIDMGKLLGGQLGLEDFIFAHVKGTKKEVNVYKSEDSLGLTITDNGVGYAFIKRIKDGSTIDSVKTICVGDHIECINGENIVGWRHFEVAKKLKELKKEELFTLQLIEPKKAFEIGPRSKAGKTSTEKIGTSRGTLRLRSKGPATVEELPSEAKAKAIGKVDDLLELYMGIRDIDLATTMFEAGKDKSNPDEFAVALDETLGDFAFPDEFLFDVWGAISDMKQGR
notes: mouse GIPC2, GH1-PDZ-GH2 domains, residues 40-314; not shown: His6, N-terminal, cleaved
Take B21: the “stoichiometry N” value in data set [7] was found to be 2. Moreover, the binding result in data set [8] is reported as “binds”.
